Assay results published in patent publication US20240218057A1 (ROCKEFELLER UNIVERSITY, published 2024).
Positions count from the first letter of the chain named.

B1: C1003 (antibody, V domains shown)
VH: QVQLVESGGGVVQPGRSLRLSCAASGFAFSSYGMNWVRQAPGKGLEWVTTVSSDGNVNYYIDSVKGRFTISRDNSKNTLYLQMNSLRGDDTAVYYCAKGPRFGWSYRGGSGFDIWGQGTMVTVSS
VL: DIQMTQSPSSLSASVGDRVTITCQASQDISNYLNWYQQKPGKAPKLLIYDASNLETGVPSRFSGSGSGTDFTFTITSLQPEDIATYYCQQYDNLPITFGQGTRLEIK
notes: IgG; V domains only
B2: C1006 (antibody, V domains shown)
VH: QVQLVQSGAEVRKPGSSVKVSCKASGGPFDQYTFSWVRQAPGQGLEWMARITPVVDLTNYAQKFQGRITIITDKSTSTAYMELSSLRSEDTAIYYCATPLNDYYASGNLGLWGQGTLVTVSS
VL: DIQMTQSPSSLSASIGDRVTITCRASQGISYYLAWFQQKPGEAPRSLIYDASSLQSGVPSKFSGSGSGTDFTLTISSLQPEDSATYYCQQYNSYPLTFGGGTKVEIK
notes: IgG; V domains only
B3: C1007 (antibody, V domains shown)
VH: QVQLVQSGSEMKKPGSSVKVSCKAAGGTLNTHTFSWVRQAPGQGLEWMGRITPTVDLTNYAQKFQGRITITADTSTNTAYLELRRLRSEDTAIYYCATPLNDYYASGNLGLWGQGTLVTVSS
VL: B2 VL with R18T, Q38R, E42K, R45K, N92S, S93T
notes: IgG; V domains only
B4: C1008 (antibody, V domains shown)
VH: EVQLVESGGGLIQPGGSLRLSCAASGFTVSSNYMSWVRQAPGKGLEWVSVIYSGGSTYYADSVKGRFTISRDNSKNTLYLQMNSLRAEDTAVYYCARVVGYDFWSGYDGGYFDYWGQGTLVTVSS
VL: QSALTQPASVSGSPGQSITISCTGTSSDVGSYNLVSWYQQHPGKAPKLMIYEVSKRPSGVSNRFSGSKSGNTASLTISGLQAEDEADYYCCSYAGSSTWVFGGGTKLTVL
notes: IgG; V domains only
B5: C1009 (antibody, V domains shown)
VH: EVQLVESGGGLLQPGGSLRLSCAASGFSVSSNYMTWVRQAPGKGLEWVAAIYSGDSTYYVDSVKGRFIISRDNSKNTVYLHLSSLRAEDTAVYYCARLVGYDFRSGSDGGYFDYWGHGTLVTVSS
VL: B4 VL with V29I, S31N, E52D, A86T
notes: IgG; V domains only
B6: C1010 (antibody, V domains shown)
VH: QVQLVESGGGVVQPGRSLRLSCAASGFTFSSYAMHWVRQAPGKGLEWVAVISYDGSNKYYADSVKGRFTISRDNSKNTLYLQMNSLRAEDTAVYYCAKKGQPYCGGDCYFYYFDYWGQGTLVTVSS
VL: DIQMTQSPSSLSASLGDRVTITCQASQDISNYLNWYQQKPGKAPKLLIYDASNLETGVPSRFSGSGSGTDFTFTISSLQPEDIATYYCQQYDNLPPITFGQGTRLEIK
notes: IgG; V domains only
B7: C1011 (antibody, V domains shown)
VH: QVQLVESGGGVVQPGRSLRLSCAVSGFTFSHYAMHWVRQAPGKGLEWVAVISYDGADKYYADSVRGRFTIARDNSKNTLFLQMSSLRPEDTAVYYCAKKGQPYCGGDCHFYYLDYWGQGTLVTVSS
VL: B6 VL with L15V, Y32H, P80A
notes: IgG; V domains only
B8: C1012 (antibody, V domains shown)
VH: QVQLVQSGAEVKKPGSSVKVSCKASGGTVNNYAINWVRQAPGQGLEWMGGIVPIFGTPNYAQKFQGRVTITADESTSTAYMELSSLRSEDTAVYYCAKVSLTLPIAAAPRFWFDSWGQGTLVTVSS
VL: EIVMTQSPATLSVSPGERATLSCRASQSVSSHLAWYQQKPGQAPRLLIYGASTRATGIPARFSGSGSGTEFTLTISSLQSEDFAVYYCQQYHNWPPALTFGGGTKVEIK
notes: IgG; V domains only
B9: C1013 (antibody, V domains shown)
VH: QVQLVQSGVEVKKPGSSVKVSCKASGGTFTDYAFSWVRQAPGQGLEWMGGIVPIFATPDYAEKFRGRVTITADESTSTAYMELSTLKSEDTAVYYCARASLTLPIRAAPRFWFDAWGQGTLVTVSS
VL: B8 VL with S28G, S31T, N93K
notes: IgG; V domains only
B10: C1014 (antibody, V domains shown)
VH: QVQLQESGPGLVRPSQTLSLTCTVSGGSIGSGAYWSWIRQHPAKGLEWIGYVYYSGSTFYNPSLETRVSISVDISKDQFSLELTSVTVADTAVYYCAREKIEVVSIEMRPHYYGIDVWGQGTTVTVSS
VL: EIVMTQSPATLSVSPGERATLSCRASQSISSNLAWYQQKPGQPPRLLIYGASTRATGIPARFSGSGSGTEFTLTISSLQSEDIAVYYCQHYNNWPPWTFGQGTKVDIK
notes: IgG; V domains only
B11: C1016 (antibody, V domains shown)
VH: QVQLQESGPGLVKPSGTLSLTCAVSGGPISSNHWWSWVRQPPGKGLEWIGEVYRNGNTNYHPSLKSRVTMSIDNSKNQFSLSLTSVTAADTAVYYCARGGDLAMGPEYLDFWGQGTLVTVSS
VL: QSALTQPASVSGSPGQSITISCTGTSSDVGANNYVSWYQQHPGKAPKLMIYDVINRPSGVSDRFSGSKSGNTASLTISGLQAEDEADYYCSSFSTSSTLLFGGGTKLTVL
notes: IgG; V domains only
B12: C1018 (antibody, V domains shown)
VH: QVQLVESGGGVVQPGRSLRLLCAASGFTFNTHGMHWVRQAPGKGLEWVAVIWFDGSNKYYADSVKGRFTISRDNSTNTLYLQMNSLRAEDTAVYYCARVYGGLPYYYAIDVWGQGTTVTVSS
VL: QSVLTQPPSVSGAPGQRVTISCAGSSSNIGAGYGVHWSQQLPGRPPKLLIYGDSNRPSGVPDRFSGSNSGTSASLAITGLQAEDEAVYYCQSYDRSLRAWVFGGGTKLSVL
notes: IgG; V domains only
B13: C1019 (antibody, V domains shown)
VH: QVQLVESGGGVVQPGTPLRLSCAASGFTFSSYAMHWVRQAPGKGLEWVAMISYDGGNKYYADSVKGRFTISRDNSKNTLFLQMNSLRGEDTAVYYCARSFSIRIGHKDNWGQGTLVTVSS
VL: NFMLTQPHSVSESPGKTVTISCTGSSGSIANNYVQWYQQRPGSAPTPVIYEDDQRPSGVPDRFSGSIDSSSNSASLSISGLKTEDEADYYCQSYDSTNFWVFGGGTKLTVL
notes: IgG; V domains only
B14: C1020 (antibody, V domains shown)
VH: QVQLVQSGAEVKKPGASVKISCKASGYSFSNYYIHWVRQAPGQGLEWMGIINPSGNSISYAQKFQGRVTMTGDTSTSTVYMELSSLRSEDTAVYYCARSVFPVPAAGGCDYWGQGTLVTVSS
VL: DIQMTQSPSSLSASVGDRVTITCRASQSITTSLNWYQQKPGKAPKLLIYSASTLESGVPSRFSGSGSGTDFTLTISSLQPEDFATYYCQQTYRAPPYTFGQGTKLEIK
notes: IgG; V domains only
B15: C1021 (antibody, V domains shown)
VH: QVQLVQSGAELKKPGASVKVSCKASGYTFSTYYIHWVRQAPGQGLEWMGIINPEAGSTSYAQKFQGRVTMTTDTSTSTVYMELISLRSQDTAIYYCARDAVGVPAINSLEYWGQGTLVTVSS
VL: EIVLTQSPATLSLSPGERATLSCRASQSISSYLAWYQQKPGQAPRLLIYDASNRATDISARFSGSGSGTDFTLTISSLEPEDFAVYYCQHRSNWPPSFTFGGGTKVEIK
notes: IgG; V domains only
B16: C1022 (antibody, V domains shown)
VH: QVQLVQSGAEVKTPGASVKVSCQASGDTFTSQYLHWVRQAPGQGLEWMGIINPTAGSTTYAQKFQGRVTMTRDTSTSTVYMELRSLRSEDMAVYYCARGGFIPMVRGFIDHWGQGTLVTVSS
VL: QSALTQPASVSGSPGQSITISCTGTSSDVGGYNYVSWYQQHPGKAPKLMIYDVSNRPSGVSTRFSGSKSGNTASLTISGLQAEDEADYYCSSPTSSNTHVFGTGTKVTVL
notes: IgG; V domains only
B17: C1023 (antibody, V domains shown)
VH: QVQLVQSGAEMKKPGASVKISCKASGDTFTTNYFHWVRQAPGQGLEWMGIINPSAGSTTYAQRFQGRVTMTGDSSTNTVYLELRSLRSEDTAMYFCAKGSYIPAMRSSFDPWGQGTLVTVSS
VL: EIVLTQSPGTLSLSPGERATLSCRASQSVSHRYLAWYQQKPGQAPRLLIDGASNRATGIPDRFSGSGSGTDFTLTISRLEPEDFGVYYCQQYGSSPPFTFGQGTKLEIK
notes: IgG; V domains only
B18: C1024 (antibody, V domains shown)
VH: QVQLVESGGGVVQPGRSLRLSCAASGFTFSDYAMHWVRQAPGKGLEWVAMISYDGNSQYYADSVKGRFTISRDNSKNTLYLQMNILRPEDTAVYYCARTFSIRIGHHDYWGQGTLVTVSS
VL: B13 VL with N31S, Q35H, P47T, Y50F, D53N, S77T, T97S, N98S
notes: IgG; V domains only
B19: C1025 (antibody, V domains shown)
VH: EVQLVESGGGLVQPGRSLRLSCAASGFTFDDYAMHWVRQVPGKGLEWVSGVSWNGDSVGYADSMEGRFTISRDNAKNSLYLQMNSLRTEDTALYYCAKGVDYSSSSNFDFWGQGTLVTVSS
VL: DIQMTQSPSSVSASVGDRVTITCRASQGISSWLAWYQQKPGKAPKLLISLASSLQSGVPSRFSGSGSETDFTLIISSLQPEDFATYYCQQSSSFPLTFGGGTKVEIK
notes: IgG; V domains only
B20: C1026 (antibody, V domains shown)
VH: QVQLVESGGGVVQPGKSLRLSCAASGFIFSSYSMHWVRQAPGKGLEWVAVVSNDGSGKFYADSVRGRFTIFRDNSKNTLYLQVSSLRAEDTAVYYCARDALTSISVLFDCWGQGTLVTVSS
VL: DIQMTQSPSSLSASLGDRVTITCRASQSISNYLNWYQQKPGKAPKLLIYGASSLQSGVPSRFSGSGSGTDFTLTISNLQPEDFATYFCQQSYSTPSVTFGGGTKVEIK
notes: IgG; V domains only
B21: C1027 (antibody, V domains shown)
VH: EVQLVESGGGLVQPGGSLRLSCAASGFIVTTNYMSWVRQAPGKGLEWVSLIYPGGSTFYADSVEGRFTISRDNSKNTLYLQVNSLRVEDTAVYYCARDTFGRGDDHWGQGTLVTVSS
VL: DIQMTQSPSSLSASVGDRVTITCQASQDINIYLNWYQQRPGKAPKLLIYDASNLQTGVPSRFSGSGSGTDFTITISSLQPEDIATYYCQQYDNLPRSFGQGTKLEI
notes: IgG; V domains only
B22: C1028 (antibody, V domains shown)
VH: QVQLVESGGGVVQPGRSLRLSCADSGFTFSSSGMHWVRQAPGKGLEWVGVISYDGGNKYYADSVKGRFTISRDNSKNTLYLQMNSLRAEDTAVYYCAKDTPGGDDIMTGWGLYGMDVWGQGTTVTVSS
VL: DIQMTQSPSSLSASVEDRVTITCRASQSISSYLNWYQQKPGKAPKLLIYAAISLQSGVPSRFSGSGSGTEFTLTISSLQPEDFATYYCQQSYTTPWAFGQGTKVEIK
notes: IgG; V domains only
B23: C1029 (antibody, V domains shown)
VH: QVQLVESGGGVVQPGRSLRLSCAASGFTFSSFGMHWVRQAPGKGLEWVAVISYDGSYKDYGDSVKGRFTISRDNSKNTLYLQMNSLRAEDTAVYYCARDSNVDTVMVTWFDYWGRGTLVTVSS
VL: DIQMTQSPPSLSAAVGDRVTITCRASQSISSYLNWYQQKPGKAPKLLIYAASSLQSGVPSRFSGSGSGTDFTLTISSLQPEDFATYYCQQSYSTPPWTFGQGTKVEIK
notes: IgG; V domains only

Each binder was assayed against T1, SARS-COV-2 RBD (SARS-COV-2, UniProt P0DTC2 319-539) (assay: ELISA, RBD coated).
T1 construct: also called WT RBD
Work on B1 yielded an EC50 of 1.82 ng/mL.
Binder B2 has an EC50 of 2.04 ng/mL.
B3 showed an EC50 of 3.22 ng/mL.
Binder B4 has an EC50 of 17.2 ng/mL.
B5 was tested, and the EC50 was 1.34 ng/mL.
B6 gave an EC50 of 2.45 ng/mL.
B7 was tested, and the EC50 was 1.49 ng/mL.
In the case of B8, the EC50 is reported as 3.29 ng/mL.
B9 gave an EC50 of 8.92 ng/mL.
B10 gave an EC50 of 2.95 ng/mL.
B11 was tested, and the EC50 was 2.16 ng/mL.
B12 gave an EC50 of 3.09 ng/mL.
Binder B13 has an EC50 of 2.8 ng/mL.
Work on B14 yielded an EC50 of 2.06 ng/mL.
For B15, the EC50 was 2.53 ng/mL.
Work on B16 yielded an EC50 of 1.66 ng/mL.
B17 showed an EC50 of 1.13 ng/mL.
In the case of B18, the EC50 is reported as 2.37 ng/mL.
With B19 the EC50 was 2.51 ng/mL.
Work on B20 yielded an EC50 of 2.5 ng/mL.
Binder B21 has an EC50 of 2.42 ng/mL.
B22 gave an EC50 of 3.58 ng/mL.
Binder B23 has an EC50 of 2.86 ng/mL.
